Tests used:
[1] = biological target: T1, Nox2 oxidase (COS-Nox2 lysate: Nox2, p22phox, p47phox, p67phox) (Homo sapiens, UniProt P14598); test: Cell-free SOD-inhibitable cytochrome c reduction assay, O2- production in COS-Nox2 lysates; type: biochemical
T1 construct: host or cells: COS 7 cells, stably transfected; cell lysate used
T1 sequence (P14598 1-390): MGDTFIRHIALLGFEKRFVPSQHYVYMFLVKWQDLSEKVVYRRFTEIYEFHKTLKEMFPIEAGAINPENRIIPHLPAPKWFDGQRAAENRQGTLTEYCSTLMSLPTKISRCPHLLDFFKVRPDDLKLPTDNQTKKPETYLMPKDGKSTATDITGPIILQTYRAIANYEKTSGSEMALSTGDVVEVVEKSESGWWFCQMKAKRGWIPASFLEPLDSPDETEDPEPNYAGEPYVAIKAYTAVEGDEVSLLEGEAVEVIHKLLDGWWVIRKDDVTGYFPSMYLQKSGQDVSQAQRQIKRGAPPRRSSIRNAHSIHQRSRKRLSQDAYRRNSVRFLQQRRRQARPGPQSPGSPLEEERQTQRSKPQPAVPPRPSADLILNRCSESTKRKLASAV
Experimental: (§1) To test this hypothesis, the inhibitory activity of Nox2ds was assessed in cell-free assays using reconstituted systems expressing either Nox1, 2 or 4 oxidase. Nox 2 oxidase was recapitulated by stably transfecting COS 7 cells with Nox2, p22phox, p47phox, and p67phox (aka COS-Nox2). Nox1 oxidase was obtained by transfecting COS 7 cells with Nox1, p22phox, NOXO1 and NOXA1 (COS-Nox1), and Nox 4 oxidase was regenerated by transfection of COS 7 cells with Nox4 and p22phox. […] Our new data support selectivity of Nox2ds peptide in differentiating the contribution of Nox2 vs. Nox1 and Nox4 NADPH oxidase and its potential clinical use in ameliorating cardiopulmonary diseases.
COS-Nox2: COS 7 cells transfected with p22^phox, Nox2, p47^phox and p67^phox (M. Dinauer, Indiana University). (Price M O, McPhail L C, Lambeth J D, Han C H, Knaus U G, Dinauer M C. Blood. 2002 Apr. 15; 99(8):2653-61.)
Superoxide (O2^−) production was measured in COS-Nox1 and COS-Nox2 lysates by determining the rate of O2^− dismutase (SOD) inhibitable cytochrome c reduction and by electron paramagnetic resonance (EPR).
COS-Nox2, COS-Nox1/NOXO1/NOXA1, and COS-22 cells were suspended to a concentration of 5×10^7 cells/ml in ice-cold disruption buffer (8 mM potassium, sodium phosphate buffer, pH 7.0, 131 mM NaCl, 340 mM sucrose, 2 mM NaN3, 5 mM MgCl2, 1 mM EGTA, 1 mM EDTA, and protease inhibitor cocktail). The cells were lysed by five freeze/thaw cycles and passed through a 30-gauge needle five times to further lyse the cells. Cell disruption was confirmed by phase-contrast microscopy. The cell lysate was centrifuged at 1000 g for 10 min at 4° C. to remove unbroken cells, nuclei, and debris. Throughout all these procedures, extreme care was taken to maintain the lysate at a temperature close to 0° C. Superoxide production was calculated from the initial linear rate (over 10 min) of SOD-inhibitable cytochrome c reduction quantified at 550 nm using the extinction coefficient of 21.1 mM-1 cm-1 (Biotek Synergy 4 hybrid multimode microplate reader). The oxidase assay buffer consisted of 65 mM sodium phosphate buffer (pH 7.0), 1 mM EGTA, 10 μM FAD, 1 mM MgCl2, 2 mM NaN3, and 0.2 mM cytochrome c. The components of the cell-free system were added in the following order: oxidase assay buffer, cell lysate (5×10^5 cell equivalents/well), and Nox2ds/Scrmb Nox2ds peptides at a final concentration of 0.1, 0.3, 1.0, 3.0, and 10 μM. The plates were placed on an orbital shaker to mix contents for 5 min at 120 movements/min at room temperature. LIDS, an established lipid activator of phagocyte cell-free systems, was added at a concentration of 130 μM, and O2^− production was initiated by the addition of 180 μM NADPH. The concentration of Nox2ds peptide that caused 50% inhibition of O2^− production (IC50) in COS-Nox2 cell lysates was calculated by Prism 5 (GraphPad Software, La Jolla, Calif., USA).
Cytochrome C Assay. FIG. 3A. Rate of O2^− production in COS-Nox2 lysates pretreated with Nox2ds or scrambled control (Scrmb Nox2ds). O2^− production was initiated by the addition of NADPH and measured by the SOD-inhibitable cytochrome c reduction for 10 min.

[2] = biological target: T2, Nox2 oxidase (COS-Nox2 lysate) (Homo sapiens, UniProt P14598); test: EPR with spin probe CMH, O2- production in COS-Nox2 lysates; type: biochemical; conditions: 10 μM peptide, vehicle 36330±2658
T2 construct: host or cells: COS 7 cells, stably transfected; cell lysate used
T2 sequence (P14598 1-390): T1 sequence (P14598 1-390)
Experimental: as §1
The spin probe 1-hydroxy-3-methoxycarbonyl-2,2,5,5-tetramethylpyrrolidine hydrochloride (CMH; Alexis Corp., San Diego, Calif., USA) was used to examine O2^− production in COS-Nox2 cell lysates using a Bruker eScan table-top EPR spectrometer (Bruker Biospin, USA). Superoxide production was measured in oxidase assay buffer (65 mM sodium phosphate buffer, pH 7.0, 1 mM EGTA, 10 μM FAD, 1 mM MgCl2, 2 mM NaN3) supplemented with 50 μM CMH. […] Analyses of the EPR spectra peak heights were used to quantify the amount of O2^− produced by the lysates and were compared with buffer-only control spectra or spectra in the presence of 10 μM Nox2ds, 10 μM Scrmb Nox2ds, or 150 U/ml SOD. […]

CLRVTRQSR (Scrambled Nox2ds) [scrmb Nox2ds, reference compound]
rate of O2- generation, SOD-inhibitable reduction of cytochrome c ([1]; 10 μM peptide, 0 μM control 1.33±0.1): 1.44±0.2 nmol O2^−/min/10^7 lysate-cell equivalents
inhibition of Nox2-oxidase O2- production (in words) ([1]; cytochrome c assay): did not inhibit
CM radical intensity (EPR, O2- production) [2]: 34142±6075

Reference: patent US9585933B2, “Therapeutic use of peptide inhibitors of NADPH oxidase; aerosolization as a delivery mechanism” (University of Pittsburgh—Of the Commonwealth System of …, priority 2011, dated 2017)
